Patent US20160311887A1 (CAMBRIDGE ENTERPRISE, published 2016)
Like-named read-outs stand apart in the source and are kept apart here.

B1: A22 WT PCI (other)
chain: APSSRRDFTFDLYRALASAAPSQNIFFSPVSISMSLAMLSLGAGSSTKMQILEGLGLNLQKSSEKELHRGFQQLLQELNQPRDGFQLSLGNALFTDLVVDLQDTFVSAMKTLYLADTFPTNFRDSAGAMKQINDYVAKQTKGKIVDLLKNLDSNAVVIMVNYIFFKAKWETSFNHKGTQEQDFYVTSETVVRVPMMSREDQYHYLLDRNLSCRVVGVPYQGNATALFILPSEGKMQQVENGLSEKTLRKWLKMFKKRQLELYLPKFSIEGSYQLEKVLPSLGISNVFTSHADLSGISNHSNIQVSEMVHKAVVEVDESGTRAAAATGTIFTFRSARLNSQRLVFNRPFLMFIVDNNILFLGKVNRP
notes: Serpin; E. coli, SUMO tag removed; also called A22 wild-type (WT) PCI
B2: A22 P2KP1′K PCI (other)
chain: APSSRRDFTFDLYRALASAAPSQNIFFSPVSISMSLAMLSLGAGSSTKMQILEGLGLNLQKSSEKELHRGFQQLLQELNQPRDGFQLSLGNALFTDLVVDLQDTFVSAMKTLYLADTFPTNFRDSAGAMKQINDYVAKQTKGKIVDLLKNLDSNAVVIMVNYIFFKAKWETSFNHKGTQEQDFYVTSETVVRVPMMSREDQYHYLLDRNLSCRVVGVPYQGNATALFILPSEGKMQQVENGLSEKTLRKWLKMFKKRQLELYLPKFSIEGSYQLEKVLPSLGISNVFTSHADLSGISNHSNIQVSEMVHKAVVEVDESGTRAAAATGTIFTKRKARLNSQRLVFNRPFLMFIVDNNILFLGKVNRP
notes: As A22 WT PCI
B3: FL α1AT Pitts C232S (other)
chain: SDPQGDAAQKTDTSHHDQDHPTFNKITPNLAEFAFSLYRQLAHQSNSTNIFFSPVSIATAFAMLSLGTKADTHDEILEGLNFNLTEIPEAQIHEGFQELLRTLNQPDSQLQLTTGNGLFLSEGLKLVDKFLEDVKKLYHSEAFTVNFGDTEEAKKQINDYVEKGTQGKIVDLVKELDRDTVFALVNYIFFKGKWERPFEVKDTEEEDFHVDQVTTVKVPMMKRLGMFNIQHSKKLSSWVLLMKYLGNATAIFFLPDEGKLQHLENELTHDIITKFLENEDRRSASLHLPKLSITGTYDLKSVLGQLGITKVFSNGADLSGVTEEAPLKLSKAVHKAVLTIDEKGTEAAGAMFLEAIPRSIPPEVKFNKPFVFLMIEQNTKSPLFMGKVVNPTQK
notes: Serpin; E. coli, SUMO tag removed; also called α1-antitrypsin Pittsburgh
B4: FL α1AT Pitts C232S P2KP1′K (other)
chain: SDPQGDAAQKTDTSHHDQDHPTFNKITPNLAEFAFSLYRQLAHQSNSTNIFFSPVSIATAFAMLSLGTKADTHDEILEGLNFNLTEIPEAQIHEGFQELLRTLNQPDSQLQLTTGNGLFLSEGLKLVDKFLEDVKKLYHSEAFTVNFGDTEEAKKQINDYVEKGTQGKIVDLVKELDRDTVFALVNYIFFKGKWERPFEVKDTEEEDFHVDQVTTVKVPMMKRLGMFNIQHSKKLSSWVLLMKYLGNATAIFFLPDEGKLQHLENELTHDIITKFLENEDRRSASLHLPKLSITGTYDLKSVLGQLGITKVFSNGADLSGVTEEAPLKLSKAVHKAVLTIDEKGTEAAGAMFLEAIKRKIPPEVKFNKPFVFLMIEQNTKSPLFMGKVVNPTQK
notes: E. coli, SUMO tag removed; also called P2KP1′K α1AT; P2KP1′K mutant of α1AT Pitts

Assays:
[1] = molecular target: T1, activated Protein C (APC) (human, UniProt P04070 43-197; P04070 212-461); test: ratio of rate constants, APC over fXa
T1 construct: also called human plasma APC
Experimental: (§1) The inhibition of APC was reduced but still considerable, especially for the variants of α₁AT and the PCI variants in the presence of heparin. However, the specificity of PCI and α₁AT Pitts is not limited to thrombin and APC. […] In order not to inhibit coagulation, our variants also need to be specific for APC over fXa. We therefore also determined the rate constants of inhibition of PCI and α₁AT and their variants for fXa (Table 3). Rate constants were measured under pseudo-first-order conditions using an excess of serpin over protease. Serpin and protease were incubated together for varying lengths of time and the residual activity determined by adding an excess of chromogenic substrate (S2222) for the protease. Plots of residual protease activity over time gave the observed rate constant kobs. The second-order rate constant, k₂, is the slope of the plot of kobs versus serpin concentration (fitted using a linear regression model). Standard errors of the slope are shown (Table 3).

[2] = molecular target: T1, activated Protein C (APC); test: ratio of rate constants with heparin, APC over thrombin
Experimental: (§2) PCI, unlike α₁AT, binds heparin and this binding considerably increases its inhibition of thrombin and APC (Pratt & Church, 1992). We therefore tested the inhibition of thrombin and APC by the P1′K and P2KP1′K PCI mutants in the presence of heparin to see if the swap in specificity seen in Table 1 would persist. Rate constants were measured under pseudo-first-order conditions using an excess of PCI over protease. PCI was preincubated with an equimolar concentration of unfractionated heparin for 30 min prior to the experiment. PCI:heparin and protease were incubated together for varying lengths of time and the residual activity after certain timepoints determined by adding an excess of chromogenic substrate for the protease mixed with polybrene to bind the heparin. Plots of residual protease activity over time gave the observed rate constant kobs. The second-order rate constant, k₂, is the slope of the plot of kobs versus serpin concentration (fitted using a linear regression model). Standard errors of the slope are shown. […] This might be due to the substrate pathway or complex dissociation. As for the inhibition in the absence of heparin, the P1′K and P2KP1′K mutants of PCI, unlike the WT protein were specific for APC over thrombin (Table 2).

[3] = molecular target: T2, thrombin (UniProt P00734 328-622); test: pseudo-first-order inhibition kinetics, residual chromogenic activity, with equimolar unfractionated heparin
Experimental: as §2

[4] = molecular target: T1, activated Protein C (APC); test: as above
Experimental: as §2

[5] = molecular target: T2, thrombin; test: pseudo-first-order inhibition kinetics, residual chromogenic activity, no heparin
Experimental: (§3) Rate constants of thrombin and APC inhibition were measured under pseudo-first-order conditions using an excess of serpin over protease (Table 1). Serpin and protease were incubated together for varying lengths of time and the residual activity was determined by adding an excess of chromogenic substrate for the protease (S2238 for thrombin and […] for APC). Residual protease activity was then measured by following the absorbance at 405 nm. Plots of residual protease activity over time gave the observed rate constant kobs. The second-order rate constant, ₖ₂, is the slope of the plot of kobs versus serpin concentration (fitted using a linear regression model). Standard errors of the slope are shown.

[6] = molecular target: T1, activated Protein C (APC); test: as above
Experimental: as §3

[7] = molecular target: T1, activated Protein C (APC); test: ratio of rate constants, APC over fXIa
Experimental: as §3
(§4) Second-order rate constants of inhibition for inhibition of fXIa by PCI and the P2KP1′K variant were measured under pseudo-first-order conditions using an excess of serpin over protease. Serpin and protease were incubated together for varying lengths of time and the residual activity determined by adding an excess of chromogenic substrate for the protease (S2366). Plots of residual protease activity over time gave the observed rate constant kobs. The second-order rate constant, k₂, is the slope of the plot of kobs versus serpin concentration (fitted using a linear regression model).

[8] = molecular target: T1, activated Protein C (APC); test: ratio of rate constants, APC over thrombin (repeated from Table 1)
[9] = molecular target: T2, thrombin; test: pseudo-first-order inhibition kinetics (repeated from Table 1)
Experimental: as §3

[10] = molecular target: T1, activated Protein C (APC); test: as above
Experimental: as §3

[11] = molecular target: T1, activated Protein C (APC); test: ratio of rate constants, APC over thrombin
Experimental: as §3

[12] = molecular target: T3, fXa (UniProt P00742 41-179; P00742 235-488); test: pseudo-first-order inhibition kinetics, residual chromogenic activity (S2222)
T3 construct: also called factor Xa
Experimental: as §1

[13] = molecular target: T1, activated Protein C (APC); test: ratio of rate constants, APC over thrombin (repeated from Table 1); remark: listed apart in the source
Experimental: as §3

[14] = molecular target: T2, thrombin; test: pseudo-first-order inhibition kinetics, residual chromogenic activity
Experimental: as §3

[15] = molecular target: T1, activated Protein C (APC); test: as above
Experimental: as §3

[16] = molecular target: T1, activated Protein C (APC); test: ratio of rate constants, APC over fXa (repeated from Table 3)
Experimental: as §1

[17] = molecular target: T1, activated Protein C (APC); test: ratio of rate constants, APC over fXIa; remark: listed apart in the source
Experimental: APC inhibition is shown for comparison (from Table 1). Standard errors are shown.
as §4, with “In addition we wanted to determine whether FL α₁AT Pitts C232S P2KP1′K affected the intrinsic (contact activation) pathway. Second-order” for “Second-order”, “inhibition” for “inhibition for inhibition”, “FL α₁AT Pitts C232S” for “PCI”, “pseudo first-order” for “pseudo-first-order”, “model). Standard errors of the slope are given.” for “model).”

[18] = molecular target: T2, thrombin; test: pseudo-first-order inhibition kinetics, residual chromogenic activity (S2238)
Experimental: as §3

T3 sequence (P00742 41-179 limits assumed, form in doubt, chain 1 of 2): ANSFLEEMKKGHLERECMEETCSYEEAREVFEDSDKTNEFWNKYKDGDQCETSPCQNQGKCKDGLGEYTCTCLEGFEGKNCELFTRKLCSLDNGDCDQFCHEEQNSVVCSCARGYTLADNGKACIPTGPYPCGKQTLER
T3 sequence (P00742 235-488 limits assumed, form in doubt, chain 2 of 2): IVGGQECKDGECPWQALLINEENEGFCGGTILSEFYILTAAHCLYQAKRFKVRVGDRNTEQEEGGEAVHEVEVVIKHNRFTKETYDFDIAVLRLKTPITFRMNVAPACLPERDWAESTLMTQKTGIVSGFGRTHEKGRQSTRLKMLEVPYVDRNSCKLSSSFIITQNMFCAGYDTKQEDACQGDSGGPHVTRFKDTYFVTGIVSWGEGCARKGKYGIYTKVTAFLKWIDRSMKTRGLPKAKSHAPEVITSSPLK
T1 sequence (P04070 43-197, chain 1 of 2): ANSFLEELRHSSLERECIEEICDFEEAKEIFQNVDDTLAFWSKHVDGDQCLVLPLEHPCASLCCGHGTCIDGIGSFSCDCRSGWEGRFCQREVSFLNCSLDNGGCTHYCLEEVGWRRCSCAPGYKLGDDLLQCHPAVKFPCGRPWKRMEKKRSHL
T1 sequence (P04070 212-461, chain 2 of 2): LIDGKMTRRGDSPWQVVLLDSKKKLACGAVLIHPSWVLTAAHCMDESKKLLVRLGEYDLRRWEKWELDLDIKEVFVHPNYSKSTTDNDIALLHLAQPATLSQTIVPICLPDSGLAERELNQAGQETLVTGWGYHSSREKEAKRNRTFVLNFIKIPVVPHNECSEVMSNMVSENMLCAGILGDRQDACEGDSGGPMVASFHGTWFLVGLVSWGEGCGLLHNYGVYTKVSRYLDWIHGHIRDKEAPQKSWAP

Binder | fold inhibition APC/fXa [1] | fold inhibition APC/thrombin [2] | second-order rate constant of inhibition [3] | second-order rate constant of inhibition [4] | second-order rate constant of inhibition [5] | second-order rate constant of inhibition [6] | inhibition of APC/fXIa [7] | inhibition of APC/thrombin [8] | second-order rate constant of inhibition [9] | second-order rate constant of inhibition [10] | fold inhibition APC/thrombin [11] | second-order rate constant of inhibition [12] | inhibition of APC/thrombin [13] | second-order rate constant of inhibition [14] | second-order rate constant of inhibition [15] | inhibition of APC/fXa [16] | inhibition of APC/fXIa [17] | binding result [18]
B1 | 0.07 fold | 0.4 fold | 1310 mM⁻¹ s⁻¹ | 564 mM⁻¹ s⁻¹ | 28.2 mM⁻¹ s⁻¹ | 0.68 mM⁻¹ s⁻¹ | 0.08 fold | 0.02 fold | 28.2 mM⁻¹ s⁻¹ | 0.68 mM⁻¹ s⁻¹ | 0.02 fold | 10.3 mM⁻¹ s⁻¹ |  |  |  |  |  | 
B2 |  | 1330 fold |  | 146 mM⁻¹ s⁻¹ |  | 0.28 mM⁻¹ s⁻¹ | 12.2 fold | 9.3 fold |  | 0.28 mM⁻¹ s⁻¹ | 9.3 fold |  |  |  |  |  |  | 
B3 | 2.6 fold |  |  |  |  |  |  |  | 293 mM⁻¹ s⁻¹ | 108 mM⁻¹ s⁻¹ | 0.4 fold | 41.3 mM⁻¹ s⁻¹ | 0.4 fold | 293 mM⁻¹ s⁻¹ | 108 mM⁻¹ s⁻¹ | 2.6 fold | 0.3 fold | 
B4 | 126 fold |  |  |  |  |  |  |  |  | 15.1 mM⁻¹ s⁻¹ |  | 0.12 mM⁻¹ s⁻¹ |  |  | 15.1 mM⁻¹ s⁻¹ | 126 fold | 32.2 fold | no binding (tested: 4 h)
